Laboratory results: patent US20190031754A1 (Scripps Research, published 2019)
Like-named read-outs stand apart in the source and are kept apart here.

Columns and labels:
[1] = biological target: T1, full-length human ROR2 on cells (human, UniProt Q01974 34-943); assay: flow cytometry, 63-12 cells expressing hROR2, Fab 1 µg/100 µL, anti-His Alexa Fluor 488
T1 construct: whole, on cells; the cells are named under assay; In the Western blot it is denatured; also called hROR2; cell surface human ROR2

[2] = biological target: T2, BSA (bovine, UniProt P02769); assay: ELISA, coated antigen 100 ng/well, anti-His HRP, absorbance 405 nm
T2 construct: also called bovine serum albumin

[3] = biological target: T3, hFc-hROR1 (human, UniProt Q01973 30-403, limits assumed); assay: as above
T3 construct: also called ROR1 (ELISA control); not shown: human Fc (hFc) of pCEP4-hFc-hROR1 (Yang et al., 2011)

[4] = biological target: T4, anti-human Fc (Jackson ImmunoResearch, 109-006-008); assay: ELISA, IgG titrated on coated anti-human Fc; fit printed as IC50
T4 construct: Coated on a control plate to capture the chimeric IgG1 antibodies through their human Fc; also called IgG

[5] = biological target: T4, anti-human Fc (Jackson ImmunoResearch, …); assay: as above; remark: listed apart in the source
[6] = biological target: T5, recombinant human twin strep-tagged ROR2 extracellular domain (human, UniProt Q01974 34-403); assay: ELISA, IgG titrated on coated twin-strep human ROR2 ECD; fit printed as IC50
T5 construct: extracellular domain; Made in HEK293T, Streptactin purified; also called Human ROR2-TwinStrep; human ROR2

[7] = biological target: T5, recombinant human twin strep-tagged …; assay: as above; remark: listed apart in the source
[8] = biological target: T6, recombinant cynomolgus twin strep-tagged ROR2 extracellular domain (cynomolgus monkey, UniProt A0A7N9D5U8 34-403); assay: ELISA, IgG titrated on coated twin-strep cynomolgus ROR2 ECD; fit printed as IC50
T6 construct: extracellular domain; Made in HEK293T, Streptactin purified; also called cynomolgus ROR2; cynomolgus ROR2-TwinStrep

[9] = biological target: T5, recombinant human twin strep-tagged …; assay: SPR, Biacore T200, IgG captured by anti-human Fcγ, ROR2-TwinStrep as analyte, 1:1 Langmuir
[10] = biological target: T6, recombinant cynomolgus twin …; assay: as above

T3 sequence (Q01973 30-403 limits assumed): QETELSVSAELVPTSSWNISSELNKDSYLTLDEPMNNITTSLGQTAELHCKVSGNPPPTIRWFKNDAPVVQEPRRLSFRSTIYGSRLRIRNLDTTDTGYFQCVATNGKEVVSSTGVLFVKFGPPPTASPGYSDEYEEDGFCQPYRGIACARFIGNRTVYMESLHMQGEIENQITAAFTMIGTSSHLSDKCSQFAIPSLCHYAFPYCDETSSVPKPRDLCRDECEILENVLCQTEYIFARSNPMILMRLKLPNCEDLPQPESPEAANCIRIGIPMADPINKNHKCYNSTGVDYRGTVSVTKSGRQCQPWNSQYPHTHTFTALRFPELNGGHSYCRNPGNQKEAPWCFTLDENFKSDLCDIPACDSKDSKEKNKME
T2 sequence (P02769 25-607 limits assumed): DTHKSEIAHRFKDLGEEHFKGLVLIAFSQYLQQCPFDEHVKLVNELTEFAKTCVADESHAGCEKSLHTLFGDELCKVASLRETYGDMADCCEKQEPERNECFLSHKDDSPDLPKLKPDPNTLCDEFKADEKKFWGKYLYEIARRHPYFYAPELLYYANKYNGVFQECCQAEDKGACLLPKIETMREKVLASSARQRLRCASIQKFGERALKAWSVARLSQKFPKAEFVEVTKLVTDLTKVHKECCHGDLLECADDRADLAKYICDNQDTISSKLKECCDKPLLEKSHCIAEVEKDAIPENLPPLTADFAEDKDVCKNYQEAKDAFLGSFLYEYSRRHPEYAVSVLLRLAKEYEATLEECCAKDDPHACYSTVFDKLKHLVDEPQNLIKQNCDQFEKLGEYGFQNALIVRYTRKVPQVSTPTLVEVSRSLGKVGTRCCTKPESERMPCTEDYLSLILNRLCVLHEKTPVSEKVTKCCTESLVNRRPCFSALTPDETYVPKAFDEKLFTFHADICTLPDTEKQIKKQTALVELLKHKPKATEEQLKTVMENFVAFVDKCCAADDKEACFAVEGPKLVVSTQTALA

Binder | binding result [2] | binding result [3] | also measured
chimeric rabbit/human Fab ERR2-TOP2 (Fab, V domains shown) VH: QSLEESGGRLVTPGTPLTLTCTVSGFSLSSYAISWVRQAPGKGLEWIGTIGTRGDTAYANWAKGRFTISKTSTTVTLKMTSPTTEDTATYFCARELVAGGGSDLWGPGTLVTVSS VL: DVVMTQTPSSVSAVVGGTVTIKCQASQSITSWLSWYQQKPGQPPKLLIYGASHLASGVPSRFKGSGYGTEFTLTISGIQREDAATYYCLGGYLSASYQTAFGGGTKVEIK | no binding (tested: 100 ng/50 µL) | no binding (tested: 100 ng/50 µL) | binding result [1]: binds
chimeric rabbit/human Fab XBR2-TOP72 (Fab, V domains shown) VH: QEQLEESGGRLVTPGTPLTLTCTVSGIDLSSNAMSWVRQAPGKGLEYVGFINGGGGVHYASWARGRFTISKTSTTVDLKITSPTTEDTATYFCARAGTTYYTSFNLWGPGTLVTISS VL: QFVLTQSPSASAALGSSAKLTCTLSSAHKTYTIAWYQQQQGEAPRLLMMLRTDGSYTKGTGVPDRFSGSSSGADRYLIISSVQADDAAGYYCGADYSGGYVFGGGTQLTVTG | no binding (tested: 100 ng/50 µL) | no binding (tested: 100 ng/50 µL) | binding result [1]: binds
chimeric rabbit/human Fab XBR2-TOP9 (Fab, V domains shown) VH: QSVEESRGRLVTPGTPLTLICTVSGIDLSSYNIQWVRQAPGKGLEYIGYINTDGSAYYASWAKGRFTISKTSTTVDLKITSPTTEDTATYFCARGGYASGFNLWGPGTLVTISS VL: DVVMTQTPSSTSAAVGGTVTIKCQASQNIGPWLSWYQQKPGQPPKQLIYAASTLASGVPSRFKGSGSGTDYTLTISGVQREDAATYYCLGWHSWSDDGWAFGAGTNVEIK | no binding (tested: 100 ng/50 µL) | no binding (tested: 100 ng/50 µL) | binding result [1]: binds
chimeric rabbit/human Fab XBR2-401 (Fab, V domains shown, also called Fab 4-1) VH: QSVKESEGGLFKPTDTLTLTCTVSGFSLSSYGVTWVRQAPGSGLEWIGYINTAGNTYYASWAKSRSTITRNTNENTVTLKMTSLTAADTATYFCARDWTSLNIWGPGTLVTVSS VL: DPMLTQTPSSTSTAVGDTVTIKCQASQSISSDLSWYQQKPGQRPKLLIYQASTLASGVPSRFKGSGYGTEYTLTISGVQREDAAIYYCLGGYADASYRTAFGGGTKLEIK | no binding (tested: 100 ng/50 µL) | no binding (tested: 100 ng/50 µL) | 
chimeric rabbit/human Fab ERR2-TOP35 (Fab, V domains shown) VH: QSVKESEGGLFKPMDTLTLTCTVSGFSLNTYGVSWVRQAPGNGLEWIGAVGSSGATNYASWAKSRSTITRNTNENTVTLKMTSLTAADTATYFCARDGYYSSGWGPYFSIWGPGTLVTVSS VL: SFVLTQPASVQVNLGQTVSLTCTAETLRSSYASWYQQKPGQAPVLLIYRDTSRPSGVPDRFSGSSSGNTATLTISGAQAGDEADYYCATSDGSGSRYYVFGGGTQLTVTG | no binding (tested: 100 ng/50 µL) | no binding (tested: 100 ng/50 µL) | 
chimeric rabbit/human Fab XBR2-416 (Fab, V domains shown, also called Fab 4-16) VH: QEQLEESGGRLVTPGTPLTLTCTVSGFSLSSYWMSWVRQAPGKGLEWIGTITPGGNTDYATWAKARFTVSKTSTTVDLKITSPTTEDTATYFCARGIGGAADLWGPGTLVTISS VL: AQVLTQTPSSTSAAVGGTVTIKCQASQSISSSDLSWYQQKPGQPPKLLIYATSYLASGVPSRFKGSGSGTEYTLTISGVQREDAATYYCLGGYPNTSYRSAFGGGTKVEIK | no binding (tested: 100 ng/50 µL) | no binding (tested: 100 ng/50 µL) | 
chimeric rabbit/human Fab XBR2-433 (Fab, V domains shown, also called Fab 4-33) VH: QSVKESEGGLFKPTDTLTLTCTVSGFSLSTYGVSWVRQAPGNGLEWIGAIGSSGSANYASWAKDRSTITRNTNLNTVTLKMTSLTAADTATYFCARDGYYSSGWGPYFNIWGPGTLVTISS VL: SFVLTQPASVQVNLGQTVSLTCTADTLSRSYASWYQQKPGQAPVLLIYRDTSRPSGVPDRFSGSSSGNTATLTISGAQAGDEADYYCATSGGSGSNPQYVFGGGTQLTVTG | no binding (tested: 100 ng/50 µL) | no binding (tested: 100 ng/50 µL) | 
chimeric rabbit/human Fab XBR2-327 (Fab, V domains shown) VH: QEQLKESGGGLFKPTDTLTLTCTVSGFSLSSGAISWVRQAPGNGLEYIGFVNSLGNTYYANWAKSRSAITRNTNENTVTLKMTSLAAADTATYFCAKDYGNWAFDPWGPGTLVTVSS VL: DPVLTQTPSSVSAAVGGTVAINCQASQSISSYLSWYQQKPGQPPKLLIYGASKLASGVPSRFSGSGSGTEYTLTISGVQREDAATYYCLGGYASASYRTAFGGGTKLEIK | no binding (tested: 100 ng/50 µL) | no binding (tested: 100 ng/50 µL) | 
chimeric rabbit/human Fab ERR2-302 (Fab, V domains shown) VH: QKQLVESGGGLVKPGGSLTLTCTVSGFSLSSYAIGWVRQAPGNGLEWIGIINSYGSTYYASWAKSRSTITRNTNLNTVTLKMTSLTAADTATYFCARSPYGYVSAWGYHRLDLWGQGTLVTISS VL: SYELTQLPSVSVSLGQTARITCGGASIGSKVVHWYQQKPGLAPGLLIYDDDERPSGVPDRFSGSNSGDTATLTISGAQAGDEAEYYCQLWDGSDVVFGGGTQLTVTG | no binding (tested: 100 ng/50 µL) | no binding (tested: 100 ng/50 µL) | 
chimeric rabbit/human Fab ERR2-308 (Fab, V domains shown) VH: QEQLEESGGRLVTPGTPLTLTCAVSGFSLSNYAMGWVRQAPGEGLEYIGWISAGGGAYYASWVNGRFTISKTSSTVDLKMTSLTAADTATYFCARGASNGCDLWGPGTLVTVSS VL: DPMLTQTPSSVSAVVGGTVTIKCQASQSITSWLSWYQQKPGQPPKLLIYGASHLASGVPSRFKGSGYGTEFTLTISGIQREDAATYYCLGGYSNSDIVFGGGTELEIL | no binding (tested: 100 ng/50 µL) | no binding (tested: 100 ng/50 µL) | 
chimeric rabbit/human Fab ERR2-316 (Fab, V domains shown) VH: QKQLVESGGRLVTPGGSLTLTCTVSGFSLSKYGVSWVRQAPGSGLEYIGTIGGSGTSYYASWAKSRSTITRNTNLNTVTLKMTSLTAADTATYFCARYFGWNTGFDIWGPGTLVTISS VL: DPVMTQTPSSVSEPVGGTVTIKCQASQSISNALAWYQQKPGQPPKRLIYKASTPASGVPSRFKGSRSGTEYTLTISGVQREDAATYYCLGFSVVSNDGWAFGAGTNVEIK | no binding (tested: 100 ng/50 µL) | no binding (tested: 100 ng/50 µL) | 
chimeric rabbit/human Fab ERR2-317 (Fab, V domains shown) VH: QSLEESGGRLVTPGTPLTLTCTASGFSLSSYDMIWVRQAPGKGLEYIGIINAGGNTYYASWAKGRFTISRTSTTVDLKMTSPTTEDTATYFCARGSSWTGDIWGPGTLVTVSS VL: DPVLTQTPSSTSAAVGGTVTIKCQASQSISSYLSWYQQKPGQPPKQLIYAASTLASGVPSRFKGSGSGTEYTLTISGVQREDAATYYCLGGYASASYQTAFGGGTKVEIK | no binding (tested: 100 ng/50 µL) | no binding (tested: 100 ng/50 µL) | 
XBR2-327 (mAb007) (antibody, human IgG1, V domains shown, Full-length chimeric rabbit/human IgG1, human IgH-gamma1 and IgL-kappa constant regions; C-terminal tags HC: LPETG-Strep, LC: G5SLPETG-Strep) VH: QEQLKESGGGLFKPTDTLTLTCTVSGFSLSSGAISWVRQAPGNGLEYIGFVNSLGNTYYANWAKSRSAITRNTNENTVTLKMTSLAAADTATYFCAKDYGNWAFDPWGPGTLVTVSS VL: DPVLTQTPSSVSAAVGGTVAINCQASQSISSYLSWYQQKPGQPPKLLIYGASKLASGVPSRFSGSGSGTEYTLTISGVQREDAATYYCLGGYASASYRTAFGGGTKLEIK |  |  | IC50 [4]: 0.0102 mg/L; IC50 [5]: 0.0433 mg/L; IC50 [6]: 0.00057 mg/L
XBR2-401 (mAb003) (antibody, human IgG1, V domains shown, Full-length chimeric rabbit/human IgG1 (kappa) with C-terminal tags HC: LPETG-Strep, LC: G5SLPETG-Strep) VH: QSVKESEGGLFKPTDTLTLTCTVSGFSLSSYGVTWVRQAPGSGLEWIGYINTAGNTYYASWAKSRSTITRNTNENTVTLKMTSLTAADTATYFCARDWTSLNIWGPGTLVTVSS VL: DPMLTQTPSSTSTAVGDTVTIKCQASQSISSDLSWYQQKPGQRPKLLIYQASTLASGVPSRFKGSGYGTEYTLTISGVQREDAAIYYCLGGYADASYRTAFGGGTKLEIK |  |  | IC50 [4]: 0.0068 mg/L; IC50 [7]: 0.0505 mg/L; IC50 [5]: 0.0856 mg/L; IC50 [6]: 0.0419 mg/L; IC50 [8]: 0.0433 mg/L; Kd [9]: ≤ 10.2 nM; Kd [10]: ≤ 1.1 nM
